Assay [1] addresses T1, SIRPa on human monocytes (human, UniProt P78324 31-504).
T1 construct: also called human monocytes (v1/v1); SIRPa variant 1 on monocytes
In words: flow cytometry on human monocytes v1/v1 (Fc receptors blocked), PE anti-human Fc; readout % stained monocytes. As for the experimental part: (§1) FIG. 3A, B, C, D, E, F, G. Binding analyses of anti-SIRPa antibodies on human monocytes (homozygote for SIRPa variant 1 (v1/v1)). [0478] […] Revelation was performed with a PE labeled mouse anti-human Fc mAb on Cantoll cytometer, values corresponding to percentage of stained monocytes. […] A corresponds to the percentage of monocytes v1/v1 stained. B corresponds to the mean of fluorescence intensity (MFI) of monocytes v1/v1. [0479] […] D represents the percentage of stained monocytes over antibody dose response. Statistical analysis were performed when it was possible. [0480] (E, F, G) SIRPa variants binding in the population by anti-h SIRPa antibodies: The capacity of different anti-hSIRPa antibodies to bind SIRPa variants in the 32 volunteers was measured by FACS with a PE-anti mouse IgG. […] F represents the homozygote variant 2 volunteers (n=8). G represents the heterozygote V1/V2 volunteers (n=8).
(§2) Method: To measure the binding of the anti-SIRPa antibodies on human monocytes, human Fc Receptor Binding Inhibitor (BD pharmingen; USA; reference 564220) was first added for 30 min at room-temperature to block human Fc receptors on human monocytes to reduce background. Then, an antibody was incubated for 30 min at 4° C., and washed before stained 30 min at 4° C. with PE-labelled anti-human IgG Fc (Biolegend; USA; reference 409303). For the mouse antibodies, a PE-labelled anti-mouseIgG (Jackson Immunoresearch; reference 715-116-151) was used. Samples were analyzed on BD LSRII or Canto II cytofluorometer.

The target of assay [2] is T1, SIRPa on human monocytes. In words: flow cytometry on human monocytes v1/v1 (Fc receptors blocked), PE anti-human Fc; readout MFI. As for the experimental part: as §1, §2
For orientation: A flow cytometer gives signals particle by particle.

The target in assay [3] is T1, SIRPa on human monocytes. In words: competition flow cytometry on human monocytes v1/v1: antibody titrated with biotinylated CD47-Fc (competitor; 10 µg/ml in the legend, 5 µg/ml in Example 5), PE-streptavidin; readout median fluorescence. The source says: (§3) FIG. 5A, B, C. […] [0485] […] A corresponds to the percentage of positive cells. B corresponds to the mean of fluorescence intensity. [0486]

In assay [4] the target is T1, SIRPa on human monocytes. In words: competition flow cytometry on human monocytes v1/v1: antibody titrated with biotinylated CD47-Fc (competitor; 10 µg/ml in the legend, 5 µg/ml in Example 5), PE-streptavidin; readout % positives.
Description: as §3

The target of assay [5] is T2, CD47 on human blood cells (T cells, red blood cells, platelets) (human, UniProt Q08722 19-323).
T2 construct: whole, on cells
In words: flow cytometry on human red blood cells (left panel) and freshly isolated human platelets (right panel).

The target of assay [6] is T3, recombinant hSIRPa (Sino Biologicals, reference 10975-H08H) (human, UniProt P78324 31-370).
T3 construct: Used in the ELISA with the mouse antibodies
In words: ELISA (ED50), immobilized hSIRPa, anti-mouse Fc detection. As for the experimental part: For the ELISA assay with the mouse antibodies, a recombinant hSIRPa (Sino Biologicals, Beijing, China; reference 10975-H08H) was immobilized on plastic at 0.5 μg/ml in carbonate buffer (pH 9.2) and the purified antibody was added to measure binding.
On the technique in general: In an ELISA, binding on a coated surface is turned into a signal by an enzyme label.

We go through 7 molecules from patent US20250215108A1 (OSE IMMUNOTHERAPEUTICS, published 2025).

Residue numbers refer to the chain shown, from its start. Values joined by “and” are separate entries in the source; they are usually repeats but may differ in a detail not shown here. Identical values can stand only once.

B1: chimeric mouse/human 18D5 antibody (antibody, human IgG4 S228P, kappa)
heavy: not shown
light: DVVMTQTPLSLPVSLGDQASISCRSSQSLVHSYGNTYLYWYLQKPGQSPKLLIYRVSNRFSGVPDRFSGSGSGTDFTLKISRVEAEDLGVYFCFQGTHVPYTFGSGTKLEIKRTVAAPSVFIFPPSDEQLKSGTASVVCLLNNFYPREAKVQWKVDNALQSGNSQESVTEQDSKDSTYSLSSTLTLSKADYEKHKVYACEVTHQGLSSPVTKSFNRGEC
notes: also called chimeric antibody; chimeric 18D5
One may read the EC50 as the concentration giving half of the maximal effect. One may read the IC50 as the midpoint of a concentration-inhibition curve. Low readings indicate greater potency, high ones weaker potency. B1: the EC50 with SIRPa on human monocytes [1] was found to be 0.225 µg/mL; with SIRPa on human monocytes [2] it was 0.78 µg/mL. Further, the IC50 in the assay with SIRPa on human monocytes [3] was 0.2 µg/mL.

B2: HFLA (humanized 18D5 variant) (antibody, human IgG4 S228P, kappa, V domains shown)
VH: EVQLVQSGAEVKKPGESLRISCKASGYSFTSYWVHWVRQMPGKGLEWMGNIDPSDSDTHYSPSFQGHVTLSVDKSISTAYLQLSSLKASDTAMYYCVRGGTGTMAYFAYWGQGTLVTVSS
VL: DVVMTQSPLSLPVTLGQPASISCRSSQSLVHSYGNTYLYWYQQRPGQSPRLLIYRVSNRFSGVPDRFSGSGSGTDFTLKISRVEAEDVGVYFCFQGTHVPYTFGGGTKVEIKR
On to B2, for which the EC50 with SIRPa on human monocytes [1] turned out to be 0.174 µg/mL; with SIRPa on human monocytes [2], 0.328 µg/mL.

B3: HALA (humanized 18D5 variant) (antibody, human IgG4 S228P, kappa, V domains shown)
VH: B2 VH with S28T, M48I, S61N, P62Q, S63K, Q65K, G66D, Y106W
VL: B2 VL
Consider B3, for which the EC50 with SIRPa on human monocytes [1] was found to be 0.242 µg/mL; with SIRPa on human monocytes [2], 0.59 µg/mL.

B4: HFLB (humanized 18D5 variant) (antibody, human IgG4 S228P, kappa, V domains shown)
VH: B2 VH
VL: B2 VL with Y41F, F92Y
Turning to B4, the 50% effective concentration (EC50) in the assay with SIRPa on human monocytes [1] is 0.201 µg/mL; with SIRPa on human monocytes [2], 0.467 µg/mL. The molecule also came in with an IC50 with SIRPa on human monocytes [4] of 0.15 µg/mL.

B5: HEFLB (humanized 18D5 variant) (antibody, human IgG4 S228P, kappa, V domains shown)
VH: B2 VH with M104L
VL: B2 VL with Y41F, F92Y
notes: also called anti-SIRPa HEFLB; HEFLB variant
For B5, the EC50 came out at 0.208 µg/mL in the assay with SIRPa on human monocytes [1] and 0.449 µg/mL with SIRPa on human monocytes [2]. The binding result in assay [5] is listed as “no binding”.

B6: HEFLA (humanized 18D5 variant) (antibody, human IgG4 S228P, kappa, V domains shown)
VH: B2 VH with M104L
VL: B2 VL
As to B6, the EC50 with SIRPa on human monocytes [1] worked out at 0.356 µg/mL; with SIRPa on human monocytes [2], 0.858 µg/mL.

B7: mouse antibody 18D5 (antibody, mouse IgG2b, kappa)
heavy: QVQLQQPGAELVRPGSSVKLSCKASGYTFTSYWVHWVKQRPIQGLEWIGNIDPSDSDTHYNQKFKDKASLTVDKSSSTAYMQLSSLTFEDSAVYYCVRGGTGTMAWFAYWGQGTLVTVSAAKTTPPSVYPLAPGCGDTTGSSVTLGCLVKGYFPESVTVTWNSGSLSSSVHTFPALLQSGLYTMSSSVTVPSSTWPSQTVTCSVAHPASSTTVDKKLEPSGPISTINPCPPCKECHKCPAPNLEGGPSVFIFPPNIKDVLMISLTPKVTCVVVDVSEDDPDVQISWFVNNVEVHTAQTQTHREDYNSTIRVVSTLPIQHQDWMSGKEFKCKVNNKDLPSPIERTISKIKGLVRAPQVYILPPPAEQLSRKDVSLTCLVVGFNPGDISVEWTSNGHTEENYKDTAPVLDSDGSYFIYSKLNMKTSKWEKTDSFSCNVRHEGLKNYYLKKTISRSPGK
light: DVVMTQTPLSLPVSLGDQASISCRSSQSLVHSYGNTYLYWYLQKPGQSPKLLIYRVSNRFSGVPDRFSGSGSGTDFTLKISRVEAEDLGVYFCFQGTHVPYTFGSGTKLEIKRADAAPTVSIFPPSSEQLTSGGASVVCFLNNFYPKDINVKWKIDGSERQNGVLNSWTDQDSKDSTYSMSSTLTLTKDEYERHNSYTCEATHKTSTSPIVKSFNRNEC
notes: also called m18D5; m18D5 clone
In the case of B7, the EC50 in assay [6] was 0.06 nM and 0.009 µg/mL.
